Our source for the Kd values is PMC3273627 (Journal of Molecular Biology, 2011).

As usually defined, the Kd is a measure of binding affinity in units of concentration. Lower therefore signals higher affinity.

The target of the test is actin filaments (UniProt P68135 1-377). Kind of test: co-sedimentation.

B1: Dys ΔH2-R19 (other)
chain: MLWWEEVEDCYEREDVQKKTFTKWINAQFSKFGKQHIDNLFSDLQDGKRLLDLLEGLTGQKLPKEKGSTRVHALNNVNKALRVLQKNNVDLVNIGSTDIVDGNHKLTLGLIWNIILHWQVKNVMKTIMAGLQQTNSEKILLSWVRQSTRNYPQVNVINFTSSWSDGLALNALIHSHRPDLFDWNSVVSQHSATQRLEHAFNIAKCQLGIEKLLDPEDVATTYPDKKSILMYITSLFQVLPQQVSIEAIQEVEMLPRTSSKVTREEHFQLHHQMHYSQQITVSLAQGYEQTSSSPKPRFKSYAFTQAAYVATSDSTQSPYPSQHLEAPRDKSLDSSLMETEVNLDSYQTALEEVLSWLLSAEDTLRAQGEISNDVEEVKEQFHAHEGFMMDLTSHQGLVGNVLQLGSQLVGKGKLSEDEEAEVQEQMNLLNSRWECLRVASMEKQSKLHKVLMDLQNQKLKELDDWLTKTEERTKKMEEEPFGPDLEDLKCQVQQHKVLQEDLEQEQVRVNSLTHMVVVVDESSGDHATAALEEQLKVLGDRWANICRWTEDRWIVLQDILLKWQHFTEEQCLFSTWLSEKEDAMKNIQTSGFKDQNEMMSSLHKISTLKIDLEKKKPTMEKLSSLNQDLLSALKNKSVTQKMEIWMENFAQRWDNLTQKLEKSSAQISQPDRAPGLSTTGASASQTVTLVTQSVVTKETVISKLEMPSSLLLEVPALADFNRAWTELTDWLSLLDRVIKSQRVMVGDLEDINEMIIKQKATLQDLEQRRPQLEELITAAQNLKNKTSNQEARTIITDRIERIQIQWDEVQEQLQNRRQQLNEMLKDSTQWLEAKEEAEQVIGQVRGKLDSWKEGPHTVDAIQKKITETKQLAKDLRQRQISVDVANDLALKLLRDYSADDTRKVHMITENINTSWGNIHKRVSEQEAALEETHRLLQQFPLDLEKFLSWITEAETTANVLQDASRKEKLLEDSRGVRELMKPWQDLQGEIETHTDIYHNLDENGQKILRSLEGSDEAPLLQRRLDNMNFKWSELQKKSLNIRSHLEASSDQWKRLHLSLQELLVWLQLKDDELSRQAPIGGDFPAVQKQNDIHRAFKRELKTKEPVIMSTLETVRIFLTEQPLEGLEKLYQEPRELPPEERAQNVTRLLRKQAEEVNAEWDKLNLRSADWQRKIDEALERLQELQEAADELDLKLRQAEVIKGSWQPVGDLLIDSLQDHLEKVKALRGEIAPLKENVNRVNDLAHQLTTLGIQLSPYNLSTLEDLNTRWRLLQVAVEDRVRQLHEAHRDFGPASQHFLSTSVQGPWERAISPNKVPYYINHETQTTCWDHPKMTELYQSLADLNNVRFSAYRTAMKLRRLQKALCLDLLSLSAACDALDQHNLKQNDQPMDILQIINCLTTIYDRLEQEHNNLVNVPLCVDMCLNWLLNVYDTGRTGRIRVLSFKTGIISLCKAHLEDKYRYLFKQVASSTGFCDQRRLGLLLHDSIQIPRQLGEVASFGGSNIEPSVRSCFQFANNKPEIEAALFLDWMRLEPQSMVWLPVLHRVAAAETAKHQAKCNICKECPIIGFRYRSLKHFNYDICQSCFFSGRVAKGHKMHYPMVEYCTPTTSGEDVRDFAKVLKNKFRTKRYFAKHPRMGYLPVQTVLEGDNMETPVTLINFWPVDSAPASSPQLSHDDTHSRIEHYASRLAEMENSNGSYLNDSISPNESIDDEHLLIQHYCQSLNQDSPLSQPRSPAQILISLESEERGELERILADLEEENRNLQAEYDRLKQQHEHKGLSPLPSPPEMMPTSPQSPRDAELIAEAKLLRQHKGRLEARMQILEDHNKQLESQLHRLRQLLEQPQAEAKVNGTTVSSPSTSLQRSDSSQPMLLRVVGSQTSESMGEEDLLSPPQDTSTGLEEVMEQLNNSFPSSRGRNAPGKPMREDTM
On to B1, for which the Kd was determined as 3.53 µM.
